These results are taken from doi:10.1101/2022.05.11.22274678 (2022).

In assay [1] the target is T1, insulin B chain peptide on HLA-DQA1*05:01 / HLA-DQB1*03:02 (human).
T1 peptide: SHLVEALYLVCGERG
The assay can be described thus: activation reporter or marker.

Assay [2] concerns the target T2, transketolase (TKT) from Clostridium leptum, TKT peptide 8 peptide on HLA-DQA1*05:01 / HLA-DQB1*03:02 (human).
T2 peptide: GHSVEALYCILADRG
The assay can be described thus: activation reporter or marker.

B1: GSE.166H9 (TCR)
alpha TRAV3 TRAJ21 CDR3: CAVMYNFNKFYF
beta TRBV12-3 TRBJ2-5 CDR3: CASSLGGRETQYF
As for B1, the binding result in assay [1] and in assay [2] was “recognises” in each case.
